Test results published in patent publication US20170247448A1 (INTRINSIC LIFESCIENCES, published 2017).

T1: Human hepcidin peptide (hepcidin-25) (human)
T1 construct: Synthetic 25 aa peptide; also called hep-25; Hep-25
T1 peptide: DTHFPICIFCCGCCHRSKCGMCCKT

B1: BAP070-hum01 (antibody, IgG1, V domains shown)
VH: QVQLVQSGAEVKKPGASVKVSCKASGYTFTNYGMNWVRQARGQRLEWIGWINTYTGEPTYADDFKGRLTISKDTSKNQVVLTMTNMDPVDTATYYCTTYATSWYWGQG
VL: DIQMTQSPSSLSASVGDRVTITCRASESVDSYGNSFMHWYQQKPGQAPRLLIYRASNLESGVPSRFSGSGSGTDFTFTISSLQPEDIATYYCQQSNEDLTFG
notes: Expressed as soluble IgG1 in CHO cells, tested as supernatant; The entries stop inside FR4 (...WGQG / ...FG); also called humanized hit 1
B2: BAP070-hum02 (antibody, IgG1, V domains shown)
VH: QVQLVQSGAEVKKPGASVKVSCKASGYTFTNYGMNWVRQARGQRLEWIGWINTYTGEPTYADDFKGRLTISKDTSKNQVVLTMTNMDPVDTATYYCTTYATSWYWGQG
VL: AIQLTQSPSSLSASVGDRVTITCRASESVDSYGNSFMHWYQQKPGKAPKLLIYRASNLESGIPARFSGSGSGTEFTLTISSLQSEDFAVYYCQQSNEDLTFG
notes: Expressed as soluble IgG1 in CHO cells, tested as supernatant; The entries stop inside FR4
B3: BAP070-hum03 (antibody, IgG1, V domains shown)
VH: QVQLVQSGAEVKKPGASVKVSCKASGYTFTNYGMNWVRQATGQGLEWMGWINTYTGEPTYADDFKGRFVFSLDTSVSTAYLQICSLKAEDTAVYYCTTYATSWYWGQG
VL: AIQLTQSPSSLSASVGDRVTITCRASESVDSYGNSFMHWYQQKPGQAPRLLIYRASNLESGVPSRFSGSGSGTDFTFTISSLQPEDIATYYCQQSNEDLTFG
notes: as for B2
B4: BAP070-hum04 (antibody, V domains shown)
VH: QVQLVQSGAEVKKPGASVKVSCKASGYTFTNYGMNWVRQARGQRLEWIGWINTYTGEPTYADDFKGRLTISKDTSKNQVVLTMTNMDPVDTATYYCTTYATSWYWGQG
VL: AIQLTQSPSSLSASVGDRVTITCRASESVDSYGNSFMHWFQQRPGQSPRRLIYRASNLESGIPPRFSGSGYGTDFTLTINNIESEDAAYYFCQQSNEDLTFG
notes: as for B2
B5: BAP070-hum05 (antibody, IgG1, V domains shown)
VH: EVQLVQSGAEVKKPGESLRISCKGSGYTFTNYGMNWIRQPPGKGLEWIGWINTYTGEPTYADDFKGRVTISADKSISTAYLQWSSLKASDTAMYYCTTYATSWYWGQG
VL: DIQMTQSPSSLSASVGDRVTITCRASESVDSYGNSFMHWYQQKPGQAPRLLIYRASNLESGVPSRFSGSGSGTDFTFTISSLQPEDIATYYCQQSNEDLTFG
notes: as for B2
B6: BAP070-hum06 (antibody, IgG1, V domains shown)
VH: EVQLVQSGAEVKKPGESLRISCKGSGYTFTNYGMNWIRQPPGKGLEWIGWINTYTGEPTYADDFKGRVTISADKSISTAYLQWSSLKASDTAMYYCTTYATSWYWGQG
VL: AIQLTQSPSSLSASVGDRVTITCRASESVDSYGNSFMHWYQQKPGQAPRLLIYRASNLESGVPSRFSGSGSGTDFTFTISSLQPEDIATYYCQQSNEDLTFG
notes: as for B2

Key:
[1] = target: T1, Human hepcidin peptide (hepcidin-25); test: titration affinity ELISA, hepcidin 100 ng/well on Nunc Immobilizer Amino plate; antibody 0 ng/ml (blank)
Procedure: (§1) FIGS. 17A-C. Titration affinity ELISA of humanized hits. FIG. 17A: Assay layout. CHO cells were seeded in 6 well plates, transfected with BAP070-01 (recombinant chimera), BAP070-01 humanized hits or vector only using BioAtla's transfection protocol and cultured at 37° C. in DMEM with 10% serum. Supernatants were collected at 48 hours post-transfection. Concentration of IgG in the supernatant was determined using BioAtla's quantitation ELISA. […] Vector only supernatant (column 7) was used as negative control. Bound antibodies were detected with anti-human IgG conjugated with HRP (1:2500). The reactions were stopped with 1 N HCl at 1.5 minutes after TMB was added to the wells and read immediately. OD 450 nm value of the reactions was measure with Molecular Device SPECTRAMAX® Plus. FIG. 17B: OD 450 nm value of the reactions measured with Molecular Device SPECTRAMAX® Plus. FIG. 17C: SOFTMAX® graph of […] data (Brown triangle: BAP070-01 recombinant chimeric antibody). X axis: Antibody concentration in ng/ml. Y axis: OD 450 nm values

[2] = target: T1, Human hepcidin peptide (hepcidin-25); test: titration affinity ELISA, hepcidin 100 ng/well on Nunc Immobilizer Amino plate, CHO supernatant; antibody 25 ng/ml
Procedure: as §1

[3] = target: T1, Human hepcidin peptide (hepcidin-25); test: titration affinity ELISA, hepcidin 100 ng/well on Nunc Immobilizer Amino plate, CHO supernatant; antibody 50 ng/ml
Procedure: as §1

[4] = target: T1, Human hepcidin peptide (hepcidin-25); test: titration affinity ELISA, hepcidin 100 ng/well on Nunc Immobilizer Amino plate, CHO supernatant; antibody 100 ng/ml
Procedure: as §1

[5] = target: T1, Human hepcidin peptide (hepcidin-25); test: titration affinity ELISA, hepcidin 100 ng/well on Nunc Immobilizer Amino plate, CHO supernatant; antibody 1.56 ng/ml
Procedure: as §1

[6] = target: T1, Human hepcidin peptide (hepcidin-25); test: titration affinity ELISA, hepcidin 100 ng/well on Nunc Immobilizer Amino plate, CHO supernatant; antibody 12.5 ng/ml
Procedure: as §1

[7] = target: T1, Human hepcidin peptide (hepcidin-25); test: titration affinity ELISA, hepcidin 100 ng/well on Nunc Immobilizer Amino plate, CHO supernatant; antibody 3.13 ng/ml
Procedure: as §1

[8] = target: T1, Human hepcidin peptide (hepcidin-25); test: titration affinity ELISA, hepcidin 100 ng/well on Nunc Immobilizer Amino plate, CHO supernatant; antibody 6.25 ng/ml
Procedure: as §1

Binder | OD 450 nm [1] [OD450] | OD 450 nm [2] [OD450] | OD 450 nm [3] [OD450] | OD 450 nm [4] [OD450] | OD 450 nm [5] [OD450] | OD 450 nm [6] [OD450] | OD 450 nm [7] [OD450] | OD 450 nm [8] [OD450]
B1 | 0.05 | 2.83 | 3.02 | 3.3 | 0.827 | 2.26 | 1.29 | 2.05
B2 | 0.048 | 2.77 | 2.98 | 3.31 | 0.804 | 2.32 | 1.28 | 1.85
B3 | 0.051 | 2.62 | 2.93 | 3.27 | 0.564 | 1.95 | 0.925 | 1.6
B4 | 0.045 | 2.81 | 2.99 | 3.35 | 0.827 | 2.33 | 1.38 | 2
B5 | 0.037 | 2.63 | 2.85 | 3.11 | 0.59 | 1.94 | 0.949 | 1.48
B6 | 0.042 | 2.69 | 3.06 | 3.25 | 0.75 | 2.12 | 1.15 | 1.68
